Assay results as given in US20240209109A1.

Target: human CD40-His protein (human) (UniProt P25942)
Assay: SPR Biacore T200, antibody captured on Protein A, CD40-His injected

Chain of human CD40-His protein (human) (P25942 21-193 limits assumed): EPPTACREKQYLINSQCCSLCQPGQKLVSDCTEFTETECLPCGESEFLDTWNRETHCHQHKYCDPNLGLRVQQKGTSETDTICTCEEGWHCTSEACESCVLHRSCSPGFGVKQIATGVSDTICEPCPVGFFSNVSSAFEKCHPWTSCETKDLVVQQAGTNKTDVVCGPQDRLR

Row | Binder | Kd [nM] | koff [s⁻¹] | kon [M⁻¹ s⁻¹]
1 | 2p415 anti-Claudin 18.2/CD40 bispecific antibody (bispecific antibody, part only; not given: Claudin 18.2 Fab arms, constant regions, linker, V domains shown, not shown: another chain or arm of the molecule; a dimerising Fc or GST; small tags and cut ends) VHH: QLHFVESGGGLVQPGGSLRLSCAASGFTLDHYAMGWFRQAPGKEREGVSCISGGGSTRYADSAKGRFTISRDNAKNTVYLQMNSLTPEDTAVYYCAAARLLSRNCVPRDSGSWGQGTQVTVSS | 754 | 0.0447 | 59300
2 | 2p551 anti-Claudin 18.2/CD40 bispecific antibody (bispecific antibody, part only; not given: Claudin 18.2 Fab arms, constant regions, linker, V domains shown, not shown: another chain or arm of the molecule; a dimerising Fc or GST; small tags and cut ends) VHH: QLHFVESGGGLVQPGGSLRLSCAASGFTLDYYAIGWFRQAPGKEREGVSCISGGGSTRYADSVKGRFTISRDNAKNTVYLQMNSLTPEDTAVYYCAAARLLSTNCVPRDSGSWGQGTQVTVSS | 492 | 0.0177 | 36100
3 | 2p442 anti-Claudin 18.2/CD40 bispecific antibody (bispecific antibody, part only; not given: Claudin 18.2 Fab arms, constant regions, linker, V domains shown, not shown: another chain or arm of the molecule; a dimerising Fc or GST; small tags and cut ends) VHH: QVQLVESGGGLVQPGGSLRLSCVASGFTLDYFAIGWFRQAPGKEREGVSCISGGGSTRYADSVKGRFTISRDNAKNTVYLQMNSLTPEDTAVYYCAAARLLSRNCVPRDSGSWGQGTQVTVSS | 1030 | 0.045 | 43700
4 | 3p78 anti-Claudin 18.2/CD40 bispecific antibody (bispecific antibody, part only; not given: Claudin 18.2 Fab arms, constant regions, linker, V domains shown, not shown: another chain or arm of the molecule; a dimerising Fc or GST; small tags and cut ends) VHH: PVQLVESGGGLVQPGGSLRLSCAASGFTFRNYAMSWVRQAPGKGLEWVSTITHNGAITTYAESAQGRFTISRDNAKNTLYLQMNSLKPEDTAVYYCAQGGGSNYYRESWGQGTQVTVSS | 2490 | 0.107 | 42700
5 | 2p834 anti-Claudin 18.2/CD40 bispecific antibody (bispecific antibody, part only; not given: Claudin 18.2 Fab arms, constant regions, linker, V domains shown, not shown: another chain or arm of the molecule; a dimerising Fc or GST; small tags and cut ends) VHH: QSQLVESGGGLVQPGGSLRLSCAASGFAFRRYTMSWVRQAPGKGLEWVSTITHNGSITTYAESAQGRFTISRDNAKNTLYLQMNSLKPEDTAVYYCAQGGGSNYYRESWGQGTQVTVSS | 90.6 | 0.0084 | 92700
6 | 2p1294 anti-Claudin 18.2/CD40 bispecific antibody (bispecific antibody, part only; not given: Claudin 18.2 Fab arms, constant regions, linker, V domains shown, not shown: another chain or arm of the molecule; a dimerising Fc or GST; small tags and cut ends) VHH: QVQLVESGGGLVQPGGSLRLSCAASGFSFRRYTMSWVRQAPGKGLEWVSAISDNGAITTYTESAQGRFTISRDNAKNTLYLQMNSLKPEDTAVYYCAQGGGSNYYRESWGQGTQVTVSS | 182 | 0.0187 | 103000

Continued by falling Kd, values first:

Row | Kd [nM] | koff [s⁻¹] | kon [M⁻¹ s⁻¹] | Binder
7 | 2770 | 0.0705 | 25400 | 2p1130 anti-Claudin 18.2/CD40 bispecific antibody (bispecific antibody, part only; not given: Claudin 18.2 Fab arms, constant regions, linker, V domains shown, not shown: another chain or arm of the molecule; a dimerising Fc or GST; small tags and cut ends) VHH: EVQVVESGGGLVQPGGSLRLTCAASGFSVDDYGIGWFRQAPGREREGVACITPNGLMMNFANTVGSVAGRFSASRDSGENTVSLQMSSLKPEDTAIYFCAHSRDDSCRGSLSDYDDWGQGTQVTVSS
8 | 2310 | 0.107 | 46400 | 2p957 anti-Claudin 18.2/CD40 bispecific antibody (bispecific antibody, part only; not given: Claudin 18.2 Fab arms, constant regions, linker, V domains shown, not shown: another chain or arm of the molecule; a dimerising Fc or GST; small tags and cut ends) VHH: PVQLVESGGGLVQPGGSLRLSCAASGFSFRNYIMSWVRQAPGKGLEWLSSITNSGGITSYTESVKGRFTISRDNAKNTLYLQMNSLKPEDTAVYYCAQGGSDNYYRGSWGQGTQVTVSS
9 | 935 | 0.0118 | 12700 | 42p495 anti-Claudin 18.2/CD40 bispecific antibody (bispecific antibody, part only; not given: Claudin 18.2 Fab arms, constant regions, linker, V domains shown, not shown: another chain or arm of the molecule; a dimerising Fc or GST; small tags and cut ends) VHH: PVQLVESGGNLVQPGGSLRLSCVAPGFTSRNSAMSWVRQAPGKGLEWVSTIYSGKSNTDYADSVKGRFTISTDNAKNTLYLHMNKLKSEDTAVYYCAKGAASDWYVPRDYWGQGTQVTVSS
10 | 760 | 0.0374 | 49100 | 42p155 anti-Claudin 18.2/CD40 bispecific antibody (bispecific antibody, part only; not given: Claudin 18.2 Fab arms, constant regions, linker, V domains shown, not shown: another chain or arm of the molecule; a dimerising Fc or GST; small tags and cut ends) VHH: PSQLVESGGGLVQPGGSLRLSCAASGFAFRSYTMSWVRQAPGKGLEWVSTITHNGAITTYAESAQGRFTISRDNAKNTLYLQMNSLKPEDTAVYYCAQGGGSNYYRESWGQGTQVTVSS
11 | 86.2 | 0.00409 | 47400 | 2p931 anti-Claudin 18.2/CD40 bispecific antibody (bispecific antibody, part only; not given: Claudin 18.2 Fab arms, constant regions, linker, V domains shown, not shown: another chain or arm of the molecule; a dimerising Fc or GST; small tags and cut ends) VHH: AVQLVESGGGLVQPGGSLRLSCAASGFSFRNYMMNWVRQAPGKGLECLSSITSAGDITSYTESVKGRFTISRDNAKNTLYLQMNSLKPEDTAVYYCAQGGCGNYYRESWGQGTQVTVSS
12 | 47.5 | 0.00442 | 93100 | 42p655 anti-Claudin 18.2/CD40 bispecific antibody (bispecific antibody, part only; not given: Claudin 18.2 Fab arms, constant regions, linker, V domains shown, not shown: another chain or arm of the molecule; a dimerising Fc or GST; small tags and cut ends) VHH: AVQLVESGGGLVQPGGSLRLSCAASGFAFRRYTMSWVRQAPGKGLEWVSSITDNGSITTYAESAQGRFTISRDNAKNTLYLQMNSLKPEDTAVYHCAQGGGSNYYRESWGQGTQVTVSS
